Measured values from paper PMC6785131.

Substrate: N[C@@H](CS)C(=O)O
Assay: purified protein
Format: biochemical, Salmonella enterica
Conditions: 2 mM ATP, 2 mM PPi, 10 mM MgCl2, 30 mM KCl, 100 mM HEPES pH 7.5, 37 °C, 25 nM enzyme, 50 μM-2 mM Cys

B1: CysRS^chr (Salmonella enterica subsp. enterica serovar Typhimurium str. LT2) (protein)
chain: MLKIFNTLTRQKEEFKPIHAGEVGMYVCGITVYDLCHIGHGRTFVAFDVVARYLRFLGYKLKYVRNITDIDDKIIKRANENGESFVALVDRMIAEMHQDFDALNILRPDSEPRATHHIQEIIELTRTLIEKGHAYVADNGDVMFDVPTDPTYGQLSRQDLEQLQAGARVDVVDVKRNPMDFVLWKMSKEGEPSWPSPWGEGRPGWHIECSAMNCKQLGNHFDIHGGGSDLMFPHHENEIAQSTCAHDGEYVNYWMHSGMVMVDREKMSKSLGNFFTVRDVLKYYDAETVRYFLMSGHYRSQLNYSEENLKQARASLERLYTALRGTDKSAAPAGGEAFEARFVEAMNDDFNTPEAYSVLFDMAREVNRLKGEDMTAANAMASHLRKISGVLGLLEQEPDVFLQSGAQADDGEVAEIEALIQQRLDARKAKDWAAADAARDRLAEMGIILEDGPQGTTWRRK
notes: tag removal not mentioned
  Km: 14 ± 3 µM
  kcat: 1.1 ± 0.2 s⁻¹
